Measurements from patent US20220048967A1 (published 2022).
Positions count from the first letter of the chain named. Numbered stars: 1 amine (or outer) side, 2 acyl side, 3 side chain; on linkers, the order of the positions; unused ones are H or OH. Square brackets hold non-standard residues; d marks the D form. Side chains are listed from the residue outwards. Ends that are not written are not given here. * marks the point of attachment. C20 diacid = O=C(O)CCCCCCCCCCCCCCCCCCC(=O)*; γGlu = O=C(O)[C@H](CCC(=O)[*:2])N[*:1]; AEEA = NCCOCCOCC(=O)O; Aib = CC(C)(N)C(=O)O

T1: human gastric inhibitory peptide receptor (GIPR) (human, UniProt P48546 22-466)
T1 sequence (looked up): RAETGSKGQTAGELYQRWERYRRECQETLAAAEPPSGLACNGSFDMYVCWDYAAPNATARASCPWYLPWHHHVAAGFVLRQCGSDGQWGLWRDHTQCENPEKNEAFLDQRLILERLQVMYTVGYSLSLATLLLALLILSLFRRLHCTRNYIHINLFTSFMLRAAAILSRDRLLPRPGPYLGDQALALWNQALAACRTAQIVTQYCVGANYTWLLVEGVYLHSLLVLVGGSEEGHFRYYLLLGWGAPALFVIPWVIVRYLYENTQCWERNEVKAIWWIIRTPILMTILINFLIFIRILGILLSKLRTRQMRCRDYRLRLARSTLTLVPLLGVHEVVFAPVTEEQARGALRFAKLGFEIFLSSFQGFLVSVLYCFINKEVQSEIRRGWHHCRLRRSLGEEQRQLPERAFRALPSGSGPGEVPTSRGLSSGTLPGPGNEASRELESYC

B1: Example 265 (peptide)
peptide: YXEGTXTSDXSIXLDXKAQXEFIXXLIEGG
modifications: Aib2, αMeF(2F)6, 4Pal10, αMeF13 (so in the source), Orn16, (2-[2-(2-Amino-ethoxy)-ethoxy]-acetyl)2-(γ-Glu)-CO-(CH2)16-CO2H on K17, Aib20, D-Glu24, αMeY25, C-terminal NH2
B2: Example 264 (peptide)
peptide: YXEGTXTSDXSIXLDXKAQXEFIXXLIEGGPSSG
modifications: Aib2, αMeF(2F)6, 4Pal10, αMeF13 (so in the source), Orn16, (2-[2-(2-Amino-ethoxy)-ethoxy]-acetyl)2-(γ-Glu)-CO-(CH2)16-CO2H on K17, Aib20, D-Glu24, αMeY25, C-terminal NH2
B3: Example 247 (peptide)
peptide: YXEGTXTSDYSIXLDXKAQXEFIXYLIEGGPSSGAPPPS
modifications: Aib2, αMeF(2F)6, Aib13, Orn16, (2-[2-(2-Amino-ethoxy)-ethoxy]-acetyl)2-(γ-Glu)-CO-(CH2)16-CO2H on K17, Aib20, D-Glu24, C-terminal NH2
B4: Example 248 (peptide)
peptide: B3 peptide with X13L
modifications: Aib2, αMeF(2F)6, Orn16, (2-[2-(2-Amino-ethoxy)-ethoxy]-acetyl)2-(γ-Glu)-CO-(CH2)16-CO2H on K17, Aib20, D-Glu24, C-terminal NH2
B5: Example 250 (peptide)
peptide: B3 peptide
modifications: Aib2, αMeF(2F)6, Aib13, Orn16, (2-[2-(2-Amino-ethoxy)-ethoxy]-acetyl)2-(γ-Glu)-CO-(CH2)18-CO2H on K17, Aib20, D-Glu24, C-terminal NH2
B6: Example 336 (peptide)
peptide: B3 peptide with Y1X, X16K, E21A, X24E
modifications: not fully specified; D-Tyr1, Aib2, αMeF(2F)6, αMeL13, (2-[2-(2-Amino-ethoxy)-ethoxy]-acetyl)2-(γ-Glu)-CO-(CH2)18-CO2H on K17, Aib20, C-terminal NH2
B7: Example 249 (peptide)
peptide: B3 peptide
modifications: Aib2, αMeF(2F)6, Nle13, Orn16, (2-[2-(2-Amino-ethoxy)-ethoxy]-acetyl)2-(γ-Glu)-CO-(CH2)16-CO2H on K17, Aib20, D-Glu24, C-terminal NH2
B8: Example 260 (peptide)
peptide: Y[Aib]EGTFTSDHSILLDKK([AEEA-AEEA-γGlu-C20 diacid])AQ[Aib]AFIEYLIEGGPSSGAPPPS-NH2
modifications: N-terminus assumed
SMILES: CC[C@H](C)[C@H](NC(=O)[C@H](CC(C)C)NC(=O)[C@H](Cc1ccc(O)cc1)NC(=O)[C@H](CCC(=O)O)NC(=O)[C@@H](NC(=O)[C@H](Cc1ccccc1)NC(=O)[C@H](C)NC(=O)C(C)(C)NC(=O)[C@H](CCC(N)=O)NC(=O)[C@H](C)NC(=O)[C@H](CCCCNC(=O)COCCOCCNC(=O)COCCOCCNC(=O)CC[C@H](NC(=O)CCCCCCCCCCCCCCCCCCC(=O)O)C(=O)O)NC(=O)[C@H](CCCCN)NC(=O)[C@H](CC(=O)O)NC(=O)[C@H](CC(C)C)NC(=O)[C@H](CC(C)C)NC(=O)[C@@H](NC(=O)[C@H](CO)NC(=O)[C@H](Cc1c[nH]cn1)NC(=O)[C@H](CC(=O)O)NC(=O)[C@H](CO)NC(=O)[C@@H](NC(=O)[C@H](Cc1ccccc1)NC(=O)[C@@H](NC(=O)CNC(=O)[C@H](CCC(=O)O)NC(=O)C(C)(C)NC(=O)[C@@H](N)Cc1ccc(O)cc1)[C@@H](C)O)[C@@H](C)O)[C@@H](C)CC)[C@@H](C)CC)C(=O)N[C@@H](CCC(=O)O)C(=O)NCC(=O)NCC(=O)N1CCC[C@H]1C(=O)N[C@@H](CO)C(=O)N[C@@H](CO)C(=O)NCC(=O)N[C@@H](C)C(=O)N1CCC[C@H]1C(=O)N1CCC[C@H]1C(=O)N1CCC[C@H]1C(=O)N[C@@H](CO)C(N)=O
B9: Example 359 (peptide)
peptide: XXEGTFTSDYSIXLDXKAQXEFVEYLIAGGPSSGAPPPS
modifications: D-Tyr1, Aib2, αMeL13, Orn16, (2-[2-(2-Amino-ethoxy)-ethoxy]-acetyl)2-(γ-Glu)-CO-(CH2)18-CO2H on K17, Aib20, C-terminal NH2
B10: Example 259 (peptide)
peptide: Y[Aib]EGTFTSDYSILLDEK([AEEA-AEEA-γGlu-C20 diacid])AQ[Aib]AFIEYLIEGGPSSGAPPPS-NH2
modifications: N-terminus assumed
SMILES: CC[C@H](C)[C@H](NC(=O)[C@H](CC(C)C)NC(=O)[C@H](Cc1ccc(O)cc1)NC(=O)[C@H](CCC(=O)O)NC(=O)[C@@H](NC(=O)[C@H](Cc1ccccc1)NC(=O)[C@H](C)NC(=O)C(C)(C)NC(=O)[C@H](CCC(N)=O)NC(=O)[C@H](C)NC(=O)[C@H](CCCCNC(=O)COCCOCCNC(=O)COCCOCCNC(=O)CC[C@H](NC(=O)CCCCCCCCCCCCCCCCCCC(=O)O)C(=O)O)NC(=O)[C@H](CCC(=O)O)NC(=O)[C@H](CC(=O)O)NC(=O)[C@H](CC(C)C)NC(=O)[C@H](CC(C)C)NC(=O)[C@@H](NC(=O)[C@H](CO)NC(=O)[C@H](Cc1ccc(O)cc1)NC(=O)[C@H](CC(=O)O)NC(=O)[C@H](CO)NC(=O)[C@@H](NC(=O)[C@H](Cc1ccccc1)NC(=O)[C@@H](NC(=O)CNC(=O)[C@H](CCC(=O)O)NC(=O)C(C)(C)NC(=O)[C@@H](N)Cc1ccc(O)cc1)[C@@H](C)O)[C@@H](C)O)[C@@H](C)CC)[C@@H](C)CC)C(=O)N[C@@H](CCC(=O)O)C(=O)NCC(=O)NCC(=O)N1CCC[C@H]1C(=O)N[C@@H](CO)C(=O)N[C@@H](CO)C(=O)NCC(=O)N[C@@H](C)C(=O)N1CCC[C@H]1C(=O)N1CCC[C@H]1C(=O)N1CCC[C@H]1C(=O)N[C@@H](CO)C(N)=O
B11: Example 258 (peptide)
peptide: Y[Aib]EGTFTSDYSILLDEK([AEEA-AEEA-γGlu-C20 diacid])AQKAFIEYLIEGGPSSGAPPPS-NH2
modifications: N-terminus assumed
SMILES: CC[C@H](C)[C@H](NC(=O)[C@H](CC(C)C)NC(=O)[C@H](Cc1ccc(O)cc1)NC(=O)[C@H](CCC(=O)O)NC(=O)[C@@H](NC(=O)[C@H](Cc1ccccc1)NC(=O)[C@H](C)NC(=O)[C@H](CCCCN)NC(=O)[C@H](CCC(N)=O)NC(=O)[C@H](C)NC(=O)[C@H](CCCCNC(=O)COCCOCCNC(=O)COCCOCCNC(=O)CC[C@H](NC(=O)CCCCCCCCCCCCCCCCCCC(=O)O)C(=O)O)NC(=O)[C@H](CCC(=O)O)NC(=O)[C@H](CC(=O)O)NC(=O)[C@H](CC(C)C)NC(=O)[C@H](CC(C)C)NC(=O)[C@@H](NC(=O)[C@H](CO)NC(=O)[C@H](Cc1ccc(O)cc1)NC(=O)[C@H](CC(=O)O)NC(=O)[C@H](CO)NC(=O)[C@@H](NC(=O)[C@H](Cc1ccccc1)NC(=O)[C@@H](NC(=O)CNC(=O)[C@H](CCC(=O)O)NC(=O)C(C)(C)NC(=O)[C@@H](N)Cc1ccc(O)cc1)[C@@H](C)O)[C@@H](C)O)[C@@H](C)CC)[C@@H](C)CC)C(=O)N[C@@H](CCC(=O)O)C(=O)NCC(=O)NCC(=O)N1CCC[C@H]1C(=O)N[C@@H](CO)C(=O)N[C@@H](CO)C(=O)NCC(=O)N[C@@H](C)C(=O)N1CCC[C@H]1C(=O)N1CCC[C@H]1C(=O)N1CCC[C@H]1C(=O)N[C@@H](CO)C(N)=O
B12: Example 253 (peptide)
peptide: YXEGTFTSDYSILLDKKAQAAFIEYLIEGGPSSGAPPPS
modifications: Aib2, (2-[2-(2-Amino-ethoxy)-ethoxy]-acetyl)2-(γ-Glu)-CO-(CH2)18-CO2H on K17, C-terminal NH2
B13: Example 263 (peptide)
peptide: B12 peptide with A20S
modifications: Aib2, (2-[2-(2-Amino-ethoxy)-ethoxy]-acetyl)2-(γ-Glu)-CO-(CH2)18-CO2H on K17, C-terminal NH2
B14: Example 256 (peptide)
peptide: B12 peptide with A20K
modifications: Aib2, (2-[2-(2-Amino-ethoxy)-ethoxy]-acetyl)2-(γ-Glu)-CO-(CH2)18-CO2H on K17, C-terminal NH2
B15: Example 261 (peptide)
peptide: B12 peptide with A20E
modifications: Aib2, (2-[2-(2-Amino-ethoxy)-ethoxy]-acetyl)2-(γ-Glu)-CO-(CH2)18-CO2H on K17, C-terminal NH2
B16: Example 254 (peptide)
peptide: B12 peptide with A20Q
modifications: Aib2, (2-[2-(2-Amino-ethoxy)-ethoxy]-acetyl)2-(γ-Glu)-CO-(CH2)18-CO2H on K17, C-terminal NH2
B17: Example 255 (peptide)
peptide: B12 peptide with A20H
modifications: Aib2, (2-[2-(2-Amino-ethoxy)-ethoxy]-acetyl)2-(γ-Glu)-CO-(CH2)18-CO2H on K17, C-terminal NH2
B18: Example 262 (peptide)
peptide: B12 peptide with A20T
modifications: Aib2, (2-[2-(2-Amino-ethoxy)-ethoxy]-acetyl)2-(γ-Glu)-CO-(CH2)18-CO2H on K17, C-terminal NH2
B19: Example 257 (peptide)
peptide: B12 peptide with A20R
modifications: Aib2, (2-[2-(2-Amino-ethoxy)-ethoxy]-acetyl)2-(γ-Glu)-CO-(CH2)18-CO2H on K17, C-terminal NH2

Target: T1, human gastric inhibitory peptide …
Test: cell-based or functional assay

Binder | hGIPR cAMP EC50 ratio | hGIPR cAMP Rel EC50 [nM]
B1 | 7.56 | 0.0229
B2 | 8.4 | 0.0196
B3 | 2.58 | 0.0622
B4 | 5.08 | 0.0328
B5 | 4.27 | 0.0376
B6 | – | 0.0312
B7 | 3.84 | 0.0437
B8 | 0.242 | 0.617
B9 | – | 0.172
B10 | 0.582 | 0.257
B11 | 0.0616 | 2.43
B12 | 0.684 | 0.219
B13 | 0.473 | 0.317
B14 | 0.233 | 0.643
B15 | 0.936 | 0.16
B16 | 0.695 | 0.215
B17 | 1.47 | 0.102
B18 | 1.15 | 0.13
B19 | 0.316 | 0.474

Target: human GLP-1 receptor (GLP-1R) (human, UniProt P43220 24-463)
Test: cell-based or functional assay

Binder | hGLP1R cAMP EC50 ratio | hGLP1R cAMP Rel EC50 [nM]
B1 | 3.27 | 0.0223
B2 | 3.19 | 0.0229
B3 | 0.614 | 0.0491
B4 | 0.8 | 0.0428
B5 | 0.985 | 0.0306
B7 | 0.778 | 0.0446
B8 | 0.171 | 0.408
B10 | 0.482 | 0.145
B11 | 0.401 | 0.174
B12 | 0.638 | 0.109
B13 | 0.906 | 0.0785
B14 | 1.38 | 0.0506
B15 | 0.75 | 0.0948
B16 | 1.26 | 0.0553
B17 | 1.71 | 0.0407
B18 | 0.754 | 0.0943
B19 | 0.895 | 0.0779
